Reference: the supplement of paper PMC11246515
± gives the standard deviation of the averaged measurements.

Experiment: total protein half-life in vivo (active degradation + dilution); higher = more stable protein
[1] = E. coli NCM3722 delta-clpP delta-lon delta-hslV, growth: N-lim chemostat, doubling time 6 h
[2] = E. coli NCM3722 delta-clpP, growth: N-lim chemostat, doubling time 6 h
[3] = E. coli NCM3722 delta-smpB, growth: N-lim chemostat, doubling time 6 h
[4] = wild type E. coli NCM3722, growth: N-lim chemostat, doubling time 6 h
[5] = wild type E. coli NCM3722, growth: P-lim chemostat, doubling time 6 h
[6] = wild type E. coli NCM3722, growth: P-lim chemostat, doubling time 12 h
[7] = wild type E. coli NCM3722, growth: C-lim chemostat, doubling time 12 h
[8] = E. coli NCM3722 delta-hslV, growth: N-lim chemostat, doubling time 6 h
[9] = E. coli NCM3722 delta-lon, growth: N-lim chemostat, doubling time 6 h
[10] = wild type E. coli NCM3722, growth: C-lim chemostat, doubling time 3 h
[11] = wild type E. coli NCM3722, growth: C-lim chemostat, doubling time 6 h
[12] = wild type E. coli NCM3722, growth: N-lim chemostat, doubling time 12 h

| Sequence | total protein half-life in vivo [1] [h] | total protein half-life in vivo [2] [h] | total protein half-life in vivo [3] [h] | total protein half-life in vivo [4] [h] | total protein half-life in vivo [5] [h] | total protein half-life in vivo [6] [h] | total protein half-life in vivo [7] [h] | total protein half-life in vivo [8] [h] | total protein half-life in vivo [9] [h] | total protein half-life in vivo [10] [h] | total protein half-life in vivo [11] [h] | total protein half-life in vivo [12] [h] |
| --- | --- | --- | --- | --- | --- | --- | --- | --- | --- | --- | --- | --- |
| MRFAIVVTGPAYGTQQASSAFQFAQALIADGHELSSVFFYREGVYNANQLTSPASDEFDLVRAWQQLNAQHGVALNICVAAALRRGVVDETEAGRLGLASSNLQQGFTLSGLGALAEASLTCDRVVQF | 5.11 | 4.58 | 3.44 | 4.52 | 6.11 | > 16 | – | – | – | – | – | – |
| MTSGLERLSNLLSKKDSVFVSDLLREAKVNELDETLSTTRLNHLIDKGYERITLQLDLGGESPGYLEKDKHYREADAALLNVIYPTNLSKINTRRKEQV | 4.54 | – | – | – | – | – | – | – | – | – | – | – |
| MSTRTPSSSSSRLMLTIGLCFLVALMEGLDLQAAGIAAGGIAQAFALDKMQMGWIFSAGILGLLPGALVGGMLADRYGRKRILIGSVALFGLFSLATAIAWDFPSLVFARLMTGVGLGAALPNLIALTSEAAGPRFRGTAVSLMYCGVPIGAALAATLGFAGANLAWQTVFWVGGVVPLILVPLLMRWLPESAVFAGEKQSAPPLRALFAPETATATLLLWLCYFFTLLVVYMLINWLPLLLVEQGFQPSQAAGVMFALQMGAASGTLMLGALMDKLRPVTMSLLIYSGMLASLLALGTVSSFNGMLLAGFVAGLFATGGQSVLYALAPLFYSSQIRATGVGTAVAVGRLGAMSGPLLAGKMLALGTGTVGVMAASAPGILVAGLAVFILMSRRSRIQPCADA | – | – | – | – | – | – | 5.24 | – | – | – | – | – |
| MKIGTVAGTNDSTTTIATNDMVQEHVTNFTKELFGYIANGIGDDISSIARTMLGEVVEKIDDWQIERFQQSIQDDKISFTIQTDHSEKYSMLSGMRAHILRRNNNYQFIVTINSKNYGCSLDNTDINWCSIVYLLNNMTVNDNANDVAVTESYKPIWNWKISQYNVSDIKFETMIKPQFADRIYFSNCLPVDPTSTRPTYFGDTDGSVGAVLFALFATGHLGIMAEGENFLSQLLNIEDEVLNVLLRENFNEQLNTNVNTIISILNRRDIILESLQPYLVINKDAVTPCTFLGDQTGDRFSNICGDQFIIDLLKRIMSINENVHVLAGNHETNCNGNYMQNFTRMKPLDEDTYSGIKDYPVCFYDPKYKIMANHHGITFDDQRKRYIIGPITVSIDEMTNALDPVELAAIINKKHHAIINGKKFKTSRAISCRSFNRYFSVSTDYRPKLEALLACSQMLGINQVVAHNGNGGRERIGETGTVLGLNARDSKHAGRMFSMHNCQINPGAGPEITTPWKSYQHEKNRNGLMPLIRRRTMLQL | 5.59 ± 0.23 | – | – | – | – | – | – | – | – | – | – | – |
| MLELLFLLLPVAAAYGWYMGRRSAQQNKQDEANRLSRDYVAGVNFLLSNQQDKAVDLFLDMLKEDTGTVEAHLTLGNLFRSRGEVDRAIRIHQTLMESASLTYEQRLLAIQQLGRDYMAAGLYDRAEDMFNQLTDETDFRIGALQQLLQIYQATSEWQKAIDVAERLVKLGKDKQRVEIAHFYCELALQHMASDDLDRAMTLLKKGAAADKNSARVSIMMGRVFMAKGEYAKAVESLQRVISQDRELVSETLEMLQTCYQQLGKTAEWAEFLQRAVEENTGADAELMLADIIEARDGSEAAQVYITRQLQRHPTMRVFHKLMDYHLNEAEEGRAKESLMVLRDMVGEKVRSKPRYRCQKCGFTAYTLYWHCPSCRAWSTIKPIRGLDGL [P0AB58] | 5.9 ± 0.22 | – | 6.039 ± 0.011 | 6.101 ± 0.027 | 5.63 ± 0.45 | 12.5 ± 0.6 | 12.2 ± 0.99 | 6.34 ± 0.37 | 6.43 ± 0.094 | 3.1 ± 0.047 | 5.91 ± 0.073 | 15.2 ± 0.67 |
| MGIKQHNGNTKADRLAELKIRSPSIQLIKFGAIGLNAIIFSPLLIAADTGSQYGTNITINDGDRITGDTADPSGNLYGVMTPAGNTPGNINLGNDVTVNVNDASGYAKGIIIQGKNSSLTANRLTVDVVGQTSAIGINLIGDYTHADLGTGSTIKSNDDGIIIGHSSTLTATQFTIENSNGIGLTINDYGTSVDLGSGSKITTDGSTGVYIGGLNGNNANGAARFTATDLTIDVQGYSAMGINVQKNSVVDLGTNSTIKTNGDNAHGLWSFGQVSANALTVDVTGAAANGVEVRGGTTTIGADSHISSAQGGGLVTSGSDAIINFTGTAAQRNSIFSGGSYGASAQTATAVVNMQNTDITVDRNGSLALGLWALSGGRITGDSLAITGAAGARGIYAMTNSQIDLTSDLVIDMSTPDQMAIATQHDDGYAASRINASGRMLINGSVLSKGGLINLDMHPGSVWTGSSLSDNVNGGKLDVAMNNSVWNVTSNSNLDTLALSHSTVDFASHGSTAGTFATLNVENLSGNSTFIMRADVVGEGNGVNNKGDLLNISGSSAGNHVLAIRNQGSEATTGNEVLTVVKTTDGAASFSASSQVELGGYLYDVRKNGTNWELYASGTVPEPTPNPEPTPAPAQPPIVNPDPTPEPAPTPKPTTTADAGGNYLNVGYLLNYVENRTLMQRMGDLRNQSKDGNIWLRSYGGSLDSFASGKLSGFDMGYSGIQFGGDKRLSDVMPLYVGLYIGSTHASPDYSGGDGTARSDYMGMYASYMAQNGFYSDLVIKASRQKNSFHVLDSQNNGVNANGTANGMSISLEAGQRFNLSPTGYGFYIEPQTQLTYSHQNEMTMKASNGLNIHLNHYESLLGRASMILGYDITAGNSQLNVYVKTGAIREFSGDTEYLLNNSREKYSFKGNGWNNGVGVSAQYNKQHTFYLEADYTQGNLFDQKQVNGGYRFSF | – | > 8 | 5.18 ± 1 | 7.13 | 4.97 ± 1.4 | 12.5 ± 2.7 | > 16 | 6.81 ± 1.4 | 5.53 ± 0.71 | – | – | 11.6 ± 0.3 |
| MSDNDTIVAQATPPGRGGVGILRISGFKAREVAETVLGKLPKPRYADYLPFKDADGSVLDQGIALWFPGPNSFTGEDVLELQGHGGPVILDLLLKRILTIPGLRIARPGEFSERAFLNDKLDLAQAEAIADLIDASSEQAARSALNSLQGAFSARVNHLVEALTHLRIYVEAAIDFPDEEIDFLSDGKIEAQLNDVIADLDAVRAEARQGSLLREGMKVVIAGRPNAGKSSLLNALAGREAAIVTDIAGTTRDVLREHIHIDGMPLHIIDTAGLREASDEVERIGIERAWQEIEQADRVLFMVDGTTTDAVDPAEIWPEFIARLPAKLPITVVRNKADITGETLGMSEVNGHALIRLSARTGEGVDVLRNHLKQSMGFDTNMEGGFLARRRHLQALEQAAEHLQQGKAQLLGAWAGELLAEELRLAQQNLSEITGEFTSDDLLGRIFSSFCIGK | 5.13 ± 0.69 | 5.57 ± 0.62 | 4.68 ± 0.25 | 5.14 ± 0.12 | 5.69 ± 0.32 | 11.7 ± 0.24 | 10.2 ± 5 | 4.91 ± 0.24 | 5.72 ± 0.4 | 3.43 ± 0.63 | 5.46 ± 0.16 | 8.32 ± 0.99 |
| MIEWIIRRSVANRFLVLMGALFLSIWGTWTIINTPVDALPDLSDVQVIIKTSYPGQAPQIVENQVTYPLTTTMLSVPGAKTVRGFSQFGDSYVYVIFEDGTDPYWARSRVLEYLNQVQGKLPAGVSAELGPDATGVGWIYEYALVDRSGKHDLADLRSLQDWFLKYELKTIPDVAEVASVGGVVKEYQVVIDPQRLAQYGISLAEVKSALDASNQEAGGSSIELAEAEYMVRASGYLQTLDDFNHIVLKASENGVPVYLRDVAKVQIGPEMRRGIAELNGEGEVAGGVVILRSGKNAREVIAAVKDKLETLKSSLPEGVEIVTTYDRSQLIDRAIDNLSGKLLEEFIVVAVVCALFLWHVRSALVAIISLPLGLCIAFIVMHFQGLNANIMSLGGIAIAVGAMVDAAIVMIENAHKRLEEWQHQHPDATLDNKTRWQVITDASVEVGPALFISLLIITLSFIPIFTLEGQEGRLFGPLAFTKTYAMAGAALLAIVVIPILMGYWIRGKIPPESSNPLNRFLIRVYHPLLLKVLHWPKTTLLVAALSVLTVLWPLNKVGGEFLPQINEGDLLYMPSTLPGISAAEAASMLQKTDKLIMSVPEVARVFGKTGKAETATDSAPLEMVETTIQLKPQEQWRPGMTMDKIIEELDNTVRLPGLANLWVPPIRNRIDMLSTGIKSPIGIKVSGTVLADIDAMAEQIEEVARTVPGVASALAERLEGGRYINVEINREKAARYGMTVADVQLFVTSAVGGAMVGETVEGIARYPINLRYPQSWRDSPQALRQLPILTPMKQQITLADVADIKVSTGPSMLKTENARPTSWIYIDARDRDMVSVVHDLQKAIAEKVQLKPGTSVAFSGQFELLERANHKLKLMVPMTLMIIFVLLYLAFRRVGEALLIISSVPFALVGGIWLLWWMGFHLSVATGTGFIALAGVAAEFGVVMLMYLRHAIEAVPSLNNPQTFSEQKLDEALYHGAVLRVRPKAMTVAVIIAGLLPILWGTGAGSEVMSRIAAPMIGGMITAPLLSLFIIPAAYKLMWLHRHRVRK | – | – | 6.09 | 5.97 ± 0.71 | 6.31 ± 0.89 | 12.7 ± 0.39 | > 16 | – | > 8 | – | 7.07 | 12.6 ± 3.8 |
